Data taken from patent US9260507B2, “Peptide promoting cell adhesion and migration” (Symatese, priority 2009, dated 2016).

Tests used:
[1] = test system: normal human keratinocytes; experiment: Cell viability test (XTT); conditions: 100 to 1 μg/ml, medium renewed every two days (repeated twice)
Method: NHKs were seeded in 96-well plates at 10^4 cells per well. After 24 hours, the culture media were removed and replaced with KBM-2 medium containing the concentrations of peptide [sequence] (SEQ ID NO: 1) (upper curve) or LG4/5 protein (lower curve) shown. After 48 h of contact at 37° C. the media were removed and this step was repeated twice. After 48 h of contact at 37° C. the media were replaced by XTT reagent. The plates were then placed in an incubator at 37° C. and the absorption was read after 6 hours. Controls with neither peptide nor protein were made on the same plate.
The effect of the peptide on the cell viability of the normal human keratinocytes was analysed using a colorimetric assay (XTT Cell Proliferation Kit, Roche Diagnostics, Meylan, France). A control with the LG4/5 protein was carried out in parallel. The chemical reaction of the test is based on the production of NADPH in living cells reducing yellow tetrazolium XTT salts to orange formazan salts. Absorption at 490 nm is measured using an ELISA plate reader. […] In this case, cell viability was calculated from the formula: % viability=(Abs. cells with peptide/Abs. control cells)×100.

HT1080 cells = experiment: Inhibition of cell adhesion by competition (HT1080 cells on LG4/5 and LN332 substrates); type: cell-based, Human; conditions: competitor in solution: peptide 20 μg/ml, LG4/5 protein 10 μg/ml, anti-LG4/5 antibody 10 μg/ml applied to substrate
Method: The LG4/5 (white bars) and LN332 (grey bars) proteins (1 μg/well) were adsorbed in 96-well plates. (A) Effect of the polyclonal anti-LG4/5 antibody on cell adhesion to the LG4/5 and LN332 protein. After saturating the wells, a solution of anti-LG4/5 antibody (10 μg/ml) was applied for one hour before performing the adhesion test with HT1080 cells (6·10^4 cells/well). (B, C) Effect of the LG4/5 protein and the peptide KKLRIKSKEK (SEQ ID NO: 1) in solution on syndecan-1 dependent adhesion to the LG4/5 fragment. The HT1080 cells were detached from the dishes and put into the wells (6·10^4 cells/well) as they were or in the presence of the LG4/5 protein (10 μg/ml) or the peptide KKLRIKSKEK (SEQ ID NO: 1) (20 μg/ml) as indicated on the graph. (A, B, C) The plates were incubated at 37° C. for 1 hour. After washing, the adherent cells were fixed and cell adhesion was measured as described in the methodology section. Cell adhesion in the presence of antibodies or competitor proteins was shown as a percentage of the cell adhesion obtained on the same substrate without competitor.
96-well plates were coated with the amounts indicated of peptide KKLRIKSKEK (SEQ ID NO: 1) or laminin 332 by adsorption at +4° C. for 16 to 18 hours. As before, the wells were saturated with a solution of 1% PBS-BSA for one hour. […]

normal human fibroblasts = experiment: Cell adhesion test (crystal violet colorimetric), normal human fibroblasts; type: cell-based; conditions: 5 μg peptide or 1 μg LG4/5 protein immobilised, FIG. 14B
Method: (A) Showing the binding of syndecan-1 to the peptide KKLRIKSKEK (SEQ ID NO: 1). A lysate of normal human fibroblasts and a lysate of normal human keratinocytes were prepared as described in the Materials and Methods section and 2 mg of each lysate were incubated with neutravidin beads not coated or coated with the biotinylated peptide KKLRIKSKEK (SEQ ID NO: 1). A positive control was performed with the keratinocyte lysate to compare the size and quantity of syndecan-1 in the 2 cell types. After washing, the material bound to the beads was digested with a mixture of heparitinase I and chondroitinase ABC to release the protein part of the syndecan-1 from the glycosaminoglycans. The samples were then analysed by SDS PAGE electrophoresis in an 8% acrylamide gel under non-reducing conditions and by immunoblotting with polyclonal anti-syndecan antibody H174. The position of molecular weight markers is shown on the left. (B, C) Cell adhesion of normal human fibroblasts to the peptide KKLRIKSKEK (SEQ ID NO: 1) and to the LG4/5 protein. In one case (B), 5 μg of peptide KKLRIKSKEK (SEQ ID NO: 1) and 1 μg of protein LG4/5 were immobilised on a 96-well plate and in the other (C), the peptide KKLRIKSKEK (SEQ ID NO: 1) was immobilised at the concentrations indicated in the abscissa. […] After washing, the adherent cells were fixed and cell adhesion was measured as described in the methodology section. […]

[2] = test system: normal human keratinocytes; experiment: NHK wound closure in a confluent keratinocyte layer (time-lapse videomicroscopy); type: cell-based; conditions: LG4/5 protein 10 μg/ml, peptide 20 μg/ml
Method: NHKs were seeded in 24-well plates and grown until confluence. The medium was removed and a wound was made in the cell layer using a pipette tip. After rinsing with PBS, the areas were incubated with KBM-2 culture medium at 37° C. in the absence or presence of LG4/5 protein (10 μg/ml) or the peptide KKLRIKSKEK (SEQ ID NO: 1) (20 μg/ml). The behaviour of cells around the wound was then immediately followed by time-lapse videomicroscopy with an image recorded every hour for 48 hours in a moist chamber containing 5% CO2. (A) Images recorded at the beginning of the experiment, at 24 h and 48 h show the total area of the wound covered by cells during the experiment and under each condition (the black lines represent the edges of the wound at the start of recording). Bar, […]. (B) The wounded areas (without cells) were measured at the start, at 24 h (grey bars) and 48 h (black bars) using the Adobe Photoshop CS3 Extended program (version 10.0) in the different conditions. The rate of closure of each wound was expressed as a percentage of the initial wound. […]
Videomicroscopy experiments were performed with a Zeiss Axiovert 100M microscope fitted with a CCD camera (1 image every 10 minutes or every hour). In the experiments of FIG. 11, we analysed the movements of 100 cells using Metaview software (Roper Scientific, Princeton Instruments, Evry, France).

B1: LG4/5 protein: purified recombinant LG4/5 domain of the alpha3 chain of pre-LN332 (laminin 332) (protein)
chain: DTPVASPRSVKVWQDACSPLPKTQANHGALQFGDIPTSHLLFKLPQELLKPRSQFAVDMQTTSSRGLVFHTGTKNSFMALYLSKGRLVFALGTDGKKLRIKSKEKCNDGKWHTVVFGHDGEKGRLVVDGLRAREGSLPGNSTISIRAPVYLGSPPSGKPKSLPTNSFVGCLKNFQLDSKPLYTPSSSFGVSSCLGGPLEKGIYFSEEGGHVVLAHSVLLGPEFKLVFSIRPRSLTGILIHIGSQPGKHLCVYLEAGKVTASMDSGAGGTSTSVTPKQSLCDGQWHSVAVTIKQHILHLELDTDSSYTAGQIPFPPASTQEPLHLGGAPANLTTLRIPVWKSFFGCLRNIHVNHIPVPVTEALEVQGPVSLNGCPDQ
- Cytotoxic effect on epidermal keratinocytes (percentage of viable cells vs controls) [1]: neither peptide […] (SEQ ID NO: 1) nor protein LG4/5 has any long-term cytotoxic effect
- Effect on HT1080 cell adhesion to the immobilised LG4/5 fragment (HT1080 cells; LG4/5 substrate 1 μg/well): blocked adhesion to the immobilised LG4/5 fragment
- Effect on HT1080 cell adhesion to LN332 (HT1080 cells; LN332 substrate 1 μg/well): without affecting adhesion to LN332
- Adhesion of human dermal fibroblasts to the immobilised substrate (normal human fibroblasts): adhere
- Area of the wound covered by cells (wound closure) ([2]; 24 h): 65%
- Area of the wound covered by cells (wound closure) ([2]; 48 h): 91%
